From patent US20240409647A1 (SINOMAB BIOSCIENCE, published 2024)

What was measured:
[1] = target: T1, human IL-17RB protein (recombinant, R&D systems) (human); test: ELISA, coated receptor; SM17 at 0.4 µg/mL; well 2
T1 construct: Bought protein; also called hIL17RB
T1 sequence (Q9NRM6 whole entry, looked up): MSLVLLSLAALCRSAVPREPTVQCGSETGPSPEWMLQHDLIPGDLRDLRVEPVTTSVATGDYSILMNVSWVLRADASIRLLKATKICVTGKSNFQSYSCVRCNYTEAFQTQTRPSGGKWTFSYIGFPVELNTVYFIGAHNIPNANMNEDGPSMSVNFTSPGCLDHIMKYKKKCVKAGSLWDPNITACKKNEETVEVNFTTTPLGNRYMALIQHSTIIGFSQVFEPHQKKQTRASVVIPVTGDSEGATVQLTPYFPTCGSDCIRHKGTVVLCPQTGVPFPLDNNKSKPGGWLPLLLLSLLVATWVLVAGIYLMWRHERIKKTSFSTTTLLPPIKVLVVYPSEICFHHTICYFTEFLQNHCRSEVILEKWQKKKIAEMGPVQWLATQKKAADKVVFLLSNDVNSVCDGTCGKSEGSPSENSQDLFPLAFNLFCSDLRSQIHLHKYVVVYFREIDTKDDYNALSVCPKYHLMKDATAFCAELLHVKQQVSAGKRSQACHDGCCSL

[2] = target: T2, human IL-17 receptor subunit A (human, UniProt Q96F46 33-320); test: ELISA, coated receptor; SM17 at 0.4 µg/mL; well 2
T2 construct: also called IL17RA; hIL17RA

[3] = target: T3, human IL-17 receptor subunit C (human, UniProt Q8NAC3-2 21-467, limits assumed); test: ELISA, coated receptor; SM17 at 0.4 µg/mL; well 2
T3 construct: also called IL17RC; hIL17RC
T3 sequence (looked up): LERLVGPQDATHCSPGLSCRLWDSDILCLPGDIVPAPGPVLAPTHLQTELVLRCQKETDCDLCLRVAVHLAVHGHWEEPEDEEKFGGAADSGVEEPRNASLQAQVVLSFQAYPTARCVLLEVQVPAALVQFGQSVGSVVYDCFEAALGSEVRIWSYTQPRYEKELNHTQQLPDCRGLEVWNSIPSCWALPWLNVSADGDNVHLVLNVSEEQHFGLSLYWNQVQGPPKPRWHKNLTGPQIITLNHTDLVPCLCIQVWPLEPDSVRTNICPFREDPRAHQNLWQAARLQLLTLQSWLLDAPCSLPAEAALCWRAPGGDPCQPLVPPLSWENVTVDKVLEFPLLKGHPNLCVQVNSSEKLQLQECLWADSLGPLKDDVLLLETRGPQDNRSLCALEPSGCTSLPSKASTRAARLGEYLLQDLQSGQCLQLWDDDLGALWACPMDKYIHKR

[4] = target: T4, human IL-17 receptor subunit D (human, UniProt Q8NFM7 28-299, limits assumed); test: ELISA, coated receptor; SM17 at 0.4 µg/mL; well 2
T4 construct: also called IL17RD; hIL 17RD
T4 sequence (looked up): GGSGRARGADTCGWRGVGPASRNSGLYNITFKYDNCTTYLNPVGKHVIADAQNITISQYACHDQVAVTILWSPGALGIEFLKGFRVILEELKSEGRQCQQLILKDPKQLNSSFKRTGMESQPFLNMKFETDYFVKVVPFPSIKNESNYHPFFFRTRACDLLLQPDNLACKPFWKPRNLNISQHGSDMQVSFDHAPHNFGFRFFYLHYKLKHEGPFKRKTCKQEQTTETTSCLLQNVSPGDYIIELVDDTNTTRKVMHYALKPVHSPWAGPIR

[5] = target: T5, human IL-17 receptor subunit E (human, UniProt Q8NFR9 24-454, limits assumed); test: ELISA, coated receptor; SM17 at 0.4 µg/mL; well 2
T5 construct: also called hIL17RE
T5 sequence (looked up): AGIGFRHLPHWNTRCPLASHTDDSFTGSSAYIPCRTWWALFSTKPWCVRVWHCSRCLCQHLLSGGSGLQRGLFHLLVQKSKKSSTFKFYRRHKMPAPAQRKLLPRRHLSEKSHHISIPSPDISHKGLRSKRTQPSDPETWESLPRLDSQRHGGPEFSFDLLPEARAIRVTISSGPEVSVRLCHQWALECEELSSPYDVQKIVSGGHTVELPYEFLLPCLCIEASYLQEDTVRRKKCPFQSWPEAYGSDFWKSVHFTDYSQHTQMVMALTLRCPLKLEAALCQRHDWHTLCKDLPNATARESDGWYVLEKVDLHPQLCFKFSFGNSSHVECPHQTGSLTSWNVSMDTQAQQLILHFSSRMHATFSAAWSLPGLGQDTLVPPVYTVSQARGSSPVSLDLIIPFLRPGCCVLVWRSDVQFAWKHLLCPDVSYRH

[6] = target: T1, human IL-17RB protein (recombinant, R&D …); test: ELISA, coated receptor; SM17 at 0.08 µg/mL; well 1
[7] = target: T2, human IL-17 receptor subunit A; test: ELISA, coated receptor; SM17 at 0.08 µg/mL; well 1
[8] = target: T3, human IL-17 receptor subunit C; test: ELISA, coated receptor; SM17 at 0.08 µg/mL; well 1
[9] = target: T4, human IL-17 receptor subunit D; test: ELISA, coated receptor; SM17 at 0.08 µg/mL; well 1
[10] = target: T5, human IL-17 receptor subunit E; test: ELISA, coated receptor; SM17 at 0.08 µg/mL; well 1
[11] = target: T2, human IL-17 receptor subunit A; test: ELISA, coated receptor; SM17 at 0.0032 µg/mL; well 1
[12] = target: T3, human IL-17 receptor subunit C; test: as above
[13] = target: T4, human IL-17 receptor subunit D; test: as above
[14] = target: T4, human IL-17 receptor subunit D; test: ELISA, coated receptor; SM17 at 0.00064 µg/mL; well 1

B1: SM17 (antibody, human IgG4 S228P, kappa, V domains shown)
VH: QVQLVQSGAEVKKPGASVKVSCKASGYTFISYWMNWVRQAPGQGLEWMGRIDPYDSEIQYNQKFKDRVTMTRDTSISTAYMELSRLRSDDTAVYYCARSGGFDWFAYWGQGTLVTVSS
VL: DIQMTQSPSSLSASVGDRVTITCRASENINSNLAWYQQKPGKAPKLLLYDVTNLADGVPSRFSGSGSGTDYTLTISSLQPEDFATYYCQHFWGPPYTFGGGTKVEIKR
notes: other paragraphs and claim 15 call the same entries VH and VL; also called humanized anti-IL17RB monoclonal antibody
[1]
  OD 450 nm Absorption: 1.31 OD450
[2]
  OD 450 nm Absorption: 0.22 OD450
[3]
  OD 450 nm Absorption: 0.18 OD450
[4]
  OD 450 nm Absorption: 0.08 OD450
[5]
  OD 450 nm Absorption: 0.05 OD450
[6]
  OD 450 nm Absorption: 0.79 OD450
[7]
  OD 450 nm Absorption: 0 OD450
[8]
  OD 450 nm Absorption: 0.02 OD450
[9]
  OD 450 nm Absorption: 0.03 OD450
[10]
  OD 450 nm Absorption: -0.04 OD450
[11]
  OD 450 nm Absorption: 0.2 OD450
[12]
  OD 450 nm Absorption: 0.03 OD450
[13]
  OD 450 nm Absorption: 0.04 OD450
[14]
  OD 450 nm Absorption: 0.08 OD450
